Target: TAP-tagged Lid1 (Apc4), subunit of the APC/C (S. pombe) (UniProt O42839)
Experiment: co-IP; Apc4-TAP pulled down with IgG Dynabeads from extracts of cdc25-22 cells released from G2 into mitosis at 25°C, carbendazim added after 20 min, time points every 15 min; blots for Mad3p (anti-GFP) and Mad2p; lysis buffer 50 mM HEPES pH 7.5, 75 mM KCl, 0.1% TritonX-100; strains wild type, mad3-KEN1, mad3-KEN2, mad3-C9A, mad2-S92A, mad3-C9A mad2-S92A

Sequence of UniProt O42839 (O42839 whole entry): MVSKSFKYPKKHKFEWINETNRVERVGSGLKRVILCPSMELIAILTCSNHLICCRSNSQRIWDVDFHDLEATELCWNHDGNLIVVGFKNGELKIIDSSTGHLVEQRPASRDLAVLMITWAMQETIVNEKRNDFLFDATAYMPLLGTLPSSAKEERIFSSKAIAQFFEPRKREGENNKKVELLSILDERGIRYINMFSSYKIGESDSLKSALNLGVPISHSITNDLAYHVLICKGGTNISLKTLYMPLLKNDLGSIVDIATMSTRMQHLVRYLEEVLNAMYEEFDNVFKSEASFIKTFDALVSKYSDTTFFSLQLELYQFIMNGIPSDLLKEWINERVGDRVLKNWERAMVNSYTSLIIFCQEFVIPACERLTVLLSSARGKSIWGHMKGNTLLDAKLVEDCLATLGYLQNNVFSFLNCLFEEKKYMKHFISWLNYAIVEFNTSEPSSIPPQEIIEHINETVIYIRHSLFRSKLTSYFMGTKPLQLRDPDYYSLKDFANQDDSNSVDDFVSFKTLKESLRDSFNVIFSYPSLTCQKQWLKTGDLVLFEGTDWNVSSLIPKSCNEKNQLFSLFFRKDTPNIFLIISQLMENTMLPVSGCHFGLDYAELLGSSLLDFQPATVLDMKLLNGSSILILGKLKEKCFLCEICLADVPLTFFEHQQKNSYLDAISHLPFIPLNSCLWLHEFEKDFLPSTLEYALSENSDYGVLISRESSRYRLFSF

Substance | level bound to the APC/C as percent of wild type (mad3-C9A mad2-S92A strain, 45 and 60 min) [%] | MCC-APC/C level as percent of wild type, 60 min [%]
Mad3-C9A tagged with GFP (from UniProt O59767 1-310) (natural protein) | 20 | –
Mad3-KEN2 mutant tagged with GFP (from UniProt O59767 1-310) (natural protein) | – | 65
